Sequences and labels used below:
T1: GPR39 (Homo sapiens, UniProt O43194)
T1 sequence (O43194 1-453): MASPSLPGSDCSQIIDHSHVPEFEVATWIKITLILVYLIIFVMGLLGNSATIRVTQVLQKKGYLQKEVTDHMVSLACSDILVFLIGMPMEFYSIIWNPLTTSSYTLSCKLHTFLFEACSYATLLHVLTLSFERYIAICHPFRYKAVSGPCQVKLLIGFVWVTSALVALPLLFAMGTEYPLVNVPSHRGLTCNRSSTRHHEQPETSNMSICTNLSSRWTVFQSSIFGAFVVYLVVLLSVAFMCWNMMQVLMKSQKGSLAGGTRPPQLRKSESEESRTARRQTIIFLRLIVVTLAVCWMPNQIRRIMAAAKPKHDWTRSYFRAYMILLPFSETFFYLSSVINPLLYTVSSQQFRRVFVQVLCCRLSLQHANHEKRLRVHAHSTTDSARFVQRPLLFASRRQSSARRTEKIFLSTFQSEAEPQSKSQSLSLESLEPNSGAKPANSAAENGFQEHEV

T2: GPR39 (G protein coupled receptor 39) (UniProt O43194 1-453, limits assumed)
T2 sequence (looked up): T1 sequence (O43194 1-453)

B1: HKFY-29 (peptide)
peptide: H(Trt)K(Octanoyl)[dPhe(4-Br)]Y-OH
B2: HKFY-33 (peptide)
peptide: H(Benzhydryl)K(Octanoyl)FY
B3: HKFY-47 (peptide)
peptide: H(Trt)K(Octanoyl)YF-OH
B4: HKFY-28 (peptide)
peptide: H(Trt)K(Octanoyl)[dPhe(4-F)]Y-OH
B5: HKFY-45 (peptide)
peptide: Biotin-H(Trt)K(Octanoyl)[Bip]Y
B6: HKFY-20 (peptide)
peptide: H(4‑methoxylbenzhydryl)K(Octanoyl)FY
B7: HKFY-49 (peptide)
peptide: His(Trt)-Lys(Octanoyl)-Phe-OH
B8: HKFY-38 (peptide)
peptide: H(Trt)K(Octanoyl)FYSDQQARF
modifications: not fully specified; printed as His(trt)-Lys(caprylic)-Phe-Tyr-Ser-Asp-Gln-Gln-Ala-Arg-Phe
B9: HKFY-27 (peptide)
peptide: H(Trt)K(Palmitoyl)FY-OH
B10: HKFY-48 (peptide)
peptide: H(Trt)K(Octanoyl)YY-OH
B11: HKFY-41 (peptide)
peptide: H(Trt)K(Octanoyl)FYQNGARF
modifications: not fully specified (C-terminus)
B12: HKFY-23 (peptide)
peptide: HK(Octanoyl)FY
modifications: not fully specified; also: His1 substituent: adamantan-1-yl or adamantanmethyl
B13: HKFY-31 (peptide)
peptide: [dH](Trt)K(Octanoyl)[dPhe(4-Me)]Y
B14: HKFY-18 (peptide)
peptide: H(Fm)K(Octanoyl)FY
B15: HKFY-17 (peptide)
peptide: HK(Octanoyl)FY
modifications: not fully specified (residue 1)
B16: HKFY-26 (peptide)
peptide: H(Trt)K(Myristoyl)FY-OH
B17: HKFY-25 (peptide)
peptide: H(Trt)K(Lauroyl)FY-OH
B18: HKFY-22 (peptide)
peptide: H(4‑methylbenzhydryl)K(Octanoyl)FY
B19: HKFY-24 (peptide)
peptide: H(Trt)K(Decanoyl)FY-OH
B20: HKFY-36 (peptide)
peptide: H(Benzhydryl)K(Octanoyl)[dPhe(4-Me)][Dmt]
B21: HKFY-21 (peptide)
peptide: H(4‑chlorobenzhydryl)K(Octanoyl)FY
B22: HKFY-32 (peptide)
peptide: HK(Octanoyl)[dPhe(4-Me)]Y
modifications: not fully specified (residue 1)
B23: HKFY-44 (peptide)
peptide: H(Trt)K(Octanoyl)FYW
B24: HKFY-30 (peptide)
peptide: H(Trt)K(Octanoyl)[dPhe(4-Me)]Y
B25: HKFY-37 (peptide)
peptide: GSH(Trt)K(Octanoyl)FY
B26: HKFY-39 (peptide)
peptide: H(Trt)K(Octanoyl)FYSQNGARF
modifications: also: C-terminal amide in IUPAC name, not in sequence formula, .39 lacks Gln-Asn
B27: HKFY-43 (peptide)
peptide: H(Trt)K(Octanoyl)FYQNQARF
modifications: also: C-terminal Phe amide in IUPAC name, not in sequence formula
B28: HKFY-40 (peptide)
peptide: H(Trt)K(Octanoyl)FYSHQQARF
modifications: not fully specified; printed as His(trt)-Lys(caprylic)-Phe-Tyr-Ser-His-Gln-Gln-Ala-Arg-Phe
B29: HKFY-35 (peptide)
peptide: H(Benzhydryl)K(Octanoyl)[dPhe(4-Me)]Y(SO3H)
B30: HKFY-4 (peptide)
peptide: [dH](Trt)K(Octanoyl)FY
B31: HKFY-3 (peptide)
peptide: H(Bn)K(Octanoyl)FY
B32: HKFY-42 (peptide)
peptide: H(Trt)K(Octanoyl)FYHQQARF
modifications: not fully specified; printed as His(trt)-Lys(caprylic)-Phe-Tyr-His-Gln-Gln-Ala-Arg-Phe
B33: HKFY-19 (peptide)
peptide: HK(Octanoyl)FY
modifications: not fully specified; also: His1 substituent: phenethyl or phenylpropyl
B34: HKFY-46 (peptide)
peptide: H(Trt)K(Octanoyl)FW

Square brackets hold non-standard residues; d marks the D form. Ends that are not written are not given here. * marks the point of attachment. 4‑methoxylbenzhydryl = COc1ccc(C(c2ccccc2)*)cc1; Biotin = O=C1N[C@H]2[C@H](CS[C@H]2CCCCC(=O)*)N1; 4‑chlorobenzhydryl = Clc1ccc(C(c2ccccc2)*)cc1; Bip = N[C@@H](Cc1ccc(-c2ccccc2)cc1)C(=O)O; dPhe(4-Br) = N[C@H](Cc1ccc(Br)cc1)C(=O)O; dPhe(4-Me) = Cc1ccc(C[C@@H](N)C(=O)O)cc1; Trt = c1ccc(C(c2ccccc2)(c2ccccc2)*)cc1; dPhe(4-F) = N[C@H](Cc1ccc(F)cc1)C(=O)O; Dmt = Cc1cc(O)cc(C)c1C[C@H](N)C(=O)O; Benzhydryl = c1ccc(C(c2ccccc2)*)cc1; Palmitoyl = CCCCCCCCCCCCCCCC(=O)*; Myristoyl = CCCCCCCCCCCCCC(=O)*; Lauroyl = CCCCCCCCCCCC(=O)*; Decanoyl = CCCCCCCCCC(=O)*; Octanoyl = CCCCCCCC(=O)*; SO3H = O=S(=O)(O)*; Bn = c1ccc(C*)cc1

The target in the first series is T1, GPR39. The experiment in a line: luciferase assay system (SRE luciferase reporter gene, CV-1 cells expressing GPR39). The series is classed as cell-based. Also noted: expressed in transfected cells; host or cells: CV-1 fibroblast cell line (Korea Cell Line Bank), adenoviral transduction at 50 MOI. (Reporter assays use an easily measured gene product as a stand-in for the process of interest.)
`CCCCCCCC(=O)NCCCC[C@H](NC(=O)[C@@H](N)Cc1c[nH]c(-c2ccccc2)n1)C(=O)N[C@H](Cc1ccc(C)cc1)C(=O)N[C@@H](Cc1ccc(O)cc1)C(=O)O` [HKFY-57, ((R)-2-((S)-2-((S)-2-amino-3-(2-phenyl-1H-imidazol-4-yl)propanamido)-6-octanamidohexanamido)-3-(p-tolyl)propanoyl)-L-tyrosine]: the “ECmax (−fold induction over basal)” value is recorded as 8.5 ± 2.3 fold induction over basal.

The target in another series is T2, GPR39 (G protein coupled receptor 39). Briefly: cell-based or functional assay.
As for B1, the “EC50; SRE-luciferase reporter” value is 0.31 µM and the “ECmax; SRE-luciferase reporter” value was 26.8 -fold induction over basal.

Take B2: the “EC50; SRE-luciferase reporter” value came to 0.15 µM and the “ECmax; SRE-luciferase reporter” value is 20 -fold induction over basal.

B3: the “EC50; SRE-luciferase reporter” value is 0.3 µM and the “ECmax; SRE-luciferase reporter” value was 13 -fold induction over basal.

In the case of B4, the “EC50; SRE-luciferase reporter” value was 0.074 µM and the “ECmax; SRE-luciferase reporter” value is 22.9 -fold induction over basal.

Take B5: the “EC50; SRE-luciferase reporter” value turned out to be 0.14 µM and the “ECmax; SRE-luciferase reporter” value was 21 -fold induction over basal.

Take B6: the “EC50; SRE-luciferase reporter” value worked out at 159 µM and the “ECmax; SRE-luciferase reporter” value is 20.3 -fold induction over basal.

B7: the “EC50; SRE-luciferase reporter” value was determined as 0.32 µM and the “ECmax; SRE-luciferase reporter” value is 18.3 -fold induction over basal.

On to B8, for which the “EC50; SRE-luciferase reporter” value was 3.5 µM and the “ECmax; SRE-luciferase reporter” value was 16.5 -fold induction over basal.

As to B9, the “EC50; SRE-luciferase reporter” value amounted to 0.56 µM and the “ECmax; SRE-luciferase reporter” value is 20.4 -fold induction over basal.

Consider B10, for which the “EC50; SRE-luciferase reporter” value turned out to be 0.33 µM and the “ECmax; SRE-luciferase reporter” value is 14.4 -fold induction over basal.

On to B11, for which the “EC50; SRE-luciferase reporter” value was 9.55 µM and the “ECmax; SRE-luciferase reporter” value was 12.2 -fold induction over basal.

For B12, the “EC50; SRE-luciferase reporter” value was 2.6 µM and the “ECmax; SRE-luciferase reporter” value was 15 -fold induction over basal.

On to B13, for which the “EC50; SRE-luciferase reporter” value was 0.02 µM and the “ECmax; SRE-luciferase reporter” value was 20.9 -fold induction over basal.

B14: the “EC50; SRE-luciferase reporter” value turned out to be 2.29 µM and the “ECmax; SRE-luciferase reporter” value is 10 -fold induction over basal.

Consider B15, for which the “EC50; SRE-luciferase reporter” value turned out to be 8.12 µM and the “ECmax; SRE-luciferase reporter” value was 20 -fold induction over basal.

Take B16: the “EC50; SRE-luciferase reporter” value was 0.28 µM and the “ECmax; SRE-luciferase reporter” value was 19.8 -fold induction over basal.

Turning to B17, the “EC50; SRE-luciferase reporter” value came to 0.63 µM and the “ECmax; SRE-luciferase reporter” value was 7.72 -fold induction over basal.

Consider B18, for which the “EC50; SRE-luciferase reporter” value amounted to 59.8 µM and the “ECmax; SRE-luciferase reporter” value was 21.3 -fold induction over basal.

As for B19, the “EC50; SRE-luciferase reporter” value was 0.24 µM and the “ECmax; SRE-luciferase reporter” value is 7.03 -fold induction over basal.

For the molecule B20, the “EC50; SRE-luciferase reporter” value is 0.15 µM and the “ECmax; SRE-luciferase reporter” value is 9.9 -fold induction over basal.

On to B21, for which the “EC50; SRE-luciferase reporter” value was 136 µM and the “ECmax; SRE-luciferase reporter” value is 18.3 -fold induction over basal.

As for B22, the “EC50; SRE-luciferase reporter” value was 0.002 µM and the “ECmax; SRE-luciferase reporter” value was 21.5 -fold induction over basal.

On to B23, for which the “EC50; SRE-luciferase reporter” value came out at 0.37 µM and the “ECmax; SRE-luciferase reporter” value was 20 -fold induction over basal.

On to B24, for which the “EC50; SRE-luciferase reporter” value is 0.008 µM and the “ECmax; SRE-luciferase reporter” value is 23.9 -fold induction over basal.

With B25, the “EC50; SRE-luciferase reporter” value worked out at 1.84 µM and the “ECmax; SRE-luciferase reporter” value was 16 -fold induction over basal.

Turning to B26, the “ECmax; SRE-luciferase reporter” value was 12.1 -fold induction over basal.

Regarding B27, the “EC50; SRE-luciferase reporter” value was 1.21 µM and the “ECmax; SRE-luciferase reporter” value is 12.1 -fold induction over basal.

Consider B28, for which the “EC50; SRE-luciferase reporter” value amounted to 1.3 µM and the “ECmax; SRE-luciferase reporter” value is 13.4 -fold induction over basal.

On to B29, for which the “EC50; SRE-luciferase reporter” value is 0.28 µM and the “ECmax; SRE-luciferase reporter” value was 18.9 -fold induction over basal.

For B30, the “EC50; SRE-luciferase reporter” value stood at 0.13 µM and the “ECmax; SRE-luciferase reporter” value is 16.8 -fold induction over basal.

Turning to B31, the “EC50; SRE-luciferase reporter” value turned out to be 4.13 µM and the “ECmax; SRE-luciferase reporter” value was 9.2 -fold induction over basal.

As for B32, the “EC50; SRE-luciferase reporter” value is 1.58 µM and the “ECmax; SRE-luciferase reporter” value was 11.8 -fold induction over basal.

B33: the “EC50; SRE-luciferase reporter” value was 24.6 µM and the “ECmax; SRE-luciferase reporter” value is 18 -fold induction over basal.

Regarding B34, the “EC50; SRE-luciferase reporter” value stood at 0.26 µM and the “ECmax; SRE-luciferase reporter” value was 20 -fold induction over basal.

These data come from patent US20250340591A1, “COMPOSITION FOR PREVENTING OR TREATING INFLAMMATORY BOWEL DISEASE CONTAINING NOVEL COMPOUND” (ANYGEN CO., LTD., priority 2021, published 2025).
